Results reported in paper PMC13626732.

Legend:
[1] = biological target: actin-related protein (Arp) 2/3 complex (UniProt P61160); assay: SPR; Arpin variants and dual-tailed peptides against the Arp2/3 complex; who was immobilised was not shown; hArpin as the dimer-enriched population
[2] = biological target: GST-aCT (chimeric protein with Arpin's CT fused to the C-terminus of glutathione S-transferase); assay: SEC; recombinant GST-aCT

| Kd [1] [µM] | stoichiometry N [2] | Substance |
| --- | --- | --- |
| 14.1 |  | full-length human Arpin (hArpin) (from UniProt Q7Z6K5 1-226) (natural protein) |
| 2.5 | 2 | GST-aCT (chimeric protein with Arpin's CT fused to the C-terminus of glutathione S-transferase) |
| 17.8 |  | ArpinCT (residues 192–226) (from UniProt Q7Z6K5 192-226) (peptide) |
